# Reference: patent US5538946A, “Hirudin derivatives with delayed action” (Hoechst Aktiengesellschaft, priority 1988, dated 1996)
# Biological target: thrombin (Homo sapiens, UniProt P00734)
# Experiment: In vitro thrombin inhibition assay (coagulation time) as in Example 2, with re-use of isolated Sepharose-hirudin
# Format: biochemical
# Details: isolated from treated plasma, washed with 1 to 1.5 M NaCl, employed again
# Protocol: Female and male Wistar rats with a body weight of about 300 g are anesthetized with ethylurethane (1.5 g/kg i.p.). 1000 AT-U/kg of a hirudin derivative or authentic `Leu-Thr-hirudin`, which has been dissolved in physiological saline, are administered i.v. to the rats. A catheter is implanted in the carotid of the animals for blood sampling. Blood is taken from the animals and treated with citrate for the determination of anti-thrombin activity. 0.1 ml of the blood treated in this way is mixed with 0.2 ml of Tris/HCl buffer (0.1 mol/1; pH 7.4) and preincubated at 37° C. After addition of 0.1 ml of a thrombin solution (10 NIH-U/ml) the coagulation time is determined using a Schnitger and Gross coagulometer. In parallel with the experiment a calibration plot is constructed using reference plasma, from which the particular plasma hirudin or plasma hirudin derivative concentration is read off.
# The protein coupling yield is 5 %. The biological activity is determined in vitro as in Example 2. The Sepharose-hirudin is isolated from the treated plasma, washed with a 1 to 1.5 M NaCl solution and again employed in the inhibition assay.
substance,measurement,value
Sepharose-hirudin: hirudin immobilised on activated CH-Sepharose 4 B (Pharmacia),measured activity on re-use in the inhibition assay,within the limit of error of the first measurement
